{"source": "IntAct's records for PubMed 19798056", "parents": {"B1": {"name": "TOM1-like protein 1 (Homo sapiens), O75674 (parent)", "chain": "MAFGKSHRDPYATSVGHLIEKATFAGVQTEDWGQFMHICDIINTTQDGPKDAVKALKKRISKNYNHKEIQLTLSLIDMCVQNCGPSFQSLIVKKEFVKENLVKLLNPRYNLPLDIQNRILNFIKTWSQGFPGGVDVSEVKEVYLDLVKKGVQFPPSEAEAETARQETAQISSNPPTSVPTAPALSSVIAPKNSTVTLVPEQIGKLHSELDMVKMNVRVMSAILMENTPGSENHEDIELLQKLYKTGREMQERIMDLLVVVENEDVTVELIQVNEDLNNAILGYERFTRNQQRILEQNKNQKEATNTTSEPSAPSQDLLDLSPSPRMPRATLGELNTMNNQLSGLNFSLPSSDVTNNLKPSLHPQMNLLALENTEIPPFAQRTSQNLTSSHAYDNFLEHSNSVFLQPVSLQTIAAAPSNQSLPPLPSNHPAMTKSDLQPPNYYEVMEFDPLAPAVTTEAIYEEIDAHQHKGAQNDGD"}}}
{"variants_of": "B1", "conditions": "with grb2_human GRB2, P62993"}
{"variant": "Y392F", "effect of a mutation on the interaction": "disrupting interaction"}
{"variants_of": "B1", "conditions": "with grb2_human GRB2, P62993", "remark": "another data set of the same source"}
{"variant": "Y460F", "effect of a mutation on the interaction": "disrupting interaction"}
